US20200317776A1 (published 2020)
Substitutions are numbered along the chain they refer to.

T1: human TREM2 expressed on cells (human, UniProt Q9NZC2 19-230)
T1 construct: BW5147.G.1.4 cells stably expressing human TREM2 together with Dap12, or endogenous TREM2 of primary human myeloid cells; also called huT2 BW; hTREM2 expressing cell line
T1 sequence: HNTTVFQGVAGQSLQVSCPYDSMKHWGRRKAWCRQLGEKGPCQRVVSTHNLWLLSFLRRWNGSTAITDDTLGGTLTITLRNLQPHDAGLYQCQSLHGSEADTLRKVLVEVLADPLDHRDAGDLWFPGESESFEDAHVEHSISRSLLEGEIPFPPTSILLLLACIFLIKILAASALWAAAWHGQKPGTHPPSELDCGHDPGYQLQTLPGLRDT

T2: human TREM2 Fc fusion (entire TREM2 ECD; only one Fc arm fused to TREM2) (human, UniProt Q9NZC2 19-174)
T2 construct: also called huTREM2-Fc; recombinant hTREM2
T2 sequence: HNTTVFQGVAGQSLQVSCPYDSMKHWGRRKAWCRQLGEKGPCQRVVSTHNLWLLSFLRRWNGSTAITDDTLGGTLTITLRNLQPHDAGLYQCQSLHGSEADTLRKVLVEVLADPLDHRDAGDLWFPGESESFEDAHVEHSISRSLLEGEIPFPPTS

T3: cynomolgus monkey TREM2 Fc fusion (entire TREM2 ECD; only one Fc arm fused to TREM2) (cynomolgus monkey, UniProt Q9NZC2 19-174 (human entry))
T3 construct: also called cyno TREM2-Fc
T3 chain: T2 sequence with A10E, W60R, L89F, F125V

B1: AL2p-57 (antibody, V domains shown)
VH: EVQLVQSGAEVKKPGSSVKVSCKASGYAFSSHWMNWVRQAPGQGLEWMGRIYPGEGDTNYAQKFHGRVTITADESTSTAYMELSSLRSEDTAVYYCARLLRNKPGESYAMDYWGQGTLVTVSS
VL: DVVMTQTPLSLSVTPGQPASISCRTSQSLVHSNQYTYLHWYLQKPGQSPQLLIYKVSNRVSGVPDRFSGSGSGTDFTLKISRVEAEDVGVYYCSQSTRVPYTFGQGTKLEIK
notes: Fab and IgG formats under one id
B2: AL2p-h36 (antibody, human IgG1, V domains shown)
VH: EVQLLESGGGLVQPGGSLRLSCAASGYAFSSSWMNWVRQAPGKGLEWIGRIYPGDGDTNYAQKFQGRATISADTSKNTAYLQMNSLRAEDTAVYYCARLLRNQPGESYAMDYWGQGTLVTVSS
VL: B1 VL with T25S, Q34G, V60F, V88L, Y92F
B3: AL2p-h42 (antibody, human IgG1, V domains shown)
VH: B1 VH with E1Q, S16A, H32S, G44R, E55D, H65Q, A72R, E74T, T76A, K103Q
VL: B1 VL with T25S, Q34G, V60F
notes: humanized, human IgG1; Fab and IgG formats under one id
B4: AL2p-h23 (antibody, human IgG1, V domains shown)
VH: QVQLVQSGAEVKKPGASLKISCKASGYAFSSSWMNWVRQAPGQGLEWIGRIYPGDGDTNYAQKFQGRATLTADTSTSTAYMELSSLRSEDTAVYYCARLLRNQPGESYAMDYWGQGALVTVSS
VL: B1 VL with T25S, Q34G, V60F, V88L, Y92F
notes: as for B3
B5: AL2p-h30 (antibody, human IgG1, V domains shown)
VH: B4 VH with L18V, I20V, I48M, A68V, L70M, A117T
VL: B1 VL with T25S, Q34G, V60F, V88L, Y92F
notes: as for B3
B6: AL2p-h44 (antibody, human IgG1, V domains shown)
VH: B4 VH with I20V, G44R, T76A, Y95F, A117T
VL: B1 VL with T25S, Q34G, V60F
notes: as for B3
B7: AL2p-h59 (antibody, human IgG1, V domains shown)
VH: B4 VH with L18V, I20V, G44R, I48M, A68V, L70I, A72R, T76A, A117T
VL: B1 VL with V2I, T7S, S12P, Q17E, T25S, Q34G, V60F, Q105G, L109V
notes: as for B3
B8: AL2p-h22 (antibody, human IgG1, V domains shown)
VH: B4 VH with L18V, I20V, A68V, L70M, A79V, A117T
VL: B1 VL with T25S, Q34G, V60F, V88L, Y92F
notes: as for B3
B9: AL2p-h47 (antibody, human IgG1, V domains shown)
VH: QVQLVQSGAEVKKPGASVKVSCKASGYAFSSSWMNWVRQAPGQGLEWMGRIYPGDGDTNYNGEFRVRVTMTRDTSTSTVYMELSSLRSEDTAVYYCARLLRNQPGESYAMDYWGQGTLVTVSS
VL: B1 VL with T25S, Q34G, V60F
notes: as for B3
B10: AL2p-h21 (antibody, human IgG1, V domains shown)
VH: B9 VH with N61A, G62Q, E63K, R65Q, V66G
VL: B1 VL with T25S, Q34G, V60F, V88L, Y92F
notes: as for B3
B11: AL2p-h34 (antibody, human IgG1, V domains shown)
VH: B4 VH with A16S, L18V, I20V, L70I, Y95F, A117T
VL: B1 VL with T25S, Q34G, V60F, V88L, Y92F
notes: as for B3
B12: AL2p-h29 (antibody, human IgG1, V domains shown)
VH: B4 VH with L18V, I20V, L70M, A117T
VL: B1 VL with T25S, Q34G, V60F, V88L, Y92F
B13: AL2p-h35 (antibody, human IgG1, V domains shown)
VH: B4 VH with A16S, L18V, I20V, I48M, L70I, A117T
VL: B1 VL with T25S, Q34G, V60F, V88L, Y92F
notes: as for B3
B14: AL2p-h26 (antibody, human IgG1, V domains shown)
VH: B4 VH with L18V, I20V, G44R, A68V, L70I, T76A, A117T
VL: B1 VL with T25S, Q34G, V60F, V88L, Y92F
notes: as for B3
B15: AL2p-h28 (antibody, human IgG1, V domains shown)
VH: B4 VH with L18V, I20V, Y95F, A117T
VL: B1 VL with T25S, Q34G, V60F, V88L, Y92F
B16: AL2p-h19 (antibody, human IgG1, V domains shown)
VH: B4 VH with A16S, L18V, I20V, I48M, L70I, A117T
VL: B1 VL with V2I, T25S, Q34G, V60F
notes: as for B3
B17: AL2p-h33 (antibody, human IgG1, V domains shown)
VH: B4 VH with A16S, L18V, I20V, S77T, Y95F, A117T
VL: B1 VL with T25S, Q34G, V60F, V88L, Y92F
notes: as for B3
B18: AL2p-h76 (antibody, human IgG1, V domains shown)
VH: B4 VH with L18V, I20V, G44R, L70I, T76A, Y95F, A117T
VL: DVVMTQSPDSLAVSLGERATINCRSSQSLVHSNGYTYLHWYQQKPGQSPKLLIYKVSNRFSGVPDRFSGSGSGTDFTLTISSLQAEDVAVYYCSQSTRVPYTFGGGTKVEIK
notes: as for B3

The binders below were run against T1, human TREM2 expressed on cells (assay: FACS, human DCs).
Text: To examine cell binding of affinity matured anti-TREM2 antibodies, both primary human monocyte derived dendritic cells and recombinant, human TREM2 expressing cells were utilized. For the latter, BW5147.G.1.4 (ATCC® TIB48™) and HEK293T cells stably expressing human TREM2 together with Dap12 using viral infection were established. For primary human monocyte derived dendritic cells, human monocytes were isolated from whole blood using RosetteSep Human monocyte enrichment cocktail (Stemcell technologies) and Ficoll centrifugation per manufacturer protocols. After lysing red blood cells with ACK lysing buffer, monocytes were resuspended in complete media (RPMI, 10% FBS, Pen/Strep, L-glutamine, HEPES, non-essential amino acid, Sodium pyruvate) with 100 ng/ml human GM-CSF (hu-GMCSF) and, human IL-4 (hu-IL-4) to differentiate dendritic cells for 6 days.
Cells were harvested by trypsinization (Hek293T) or scraping (BW and dendritic cells), washed in PBS, counted and plated on 96-well U bottom plates at […] cells/well. The plates were spun at 1,400 rpm for 3 minutes and primary TREM2 or control antibodies were added in FACS buffer (PBS+2% FBS) and incubated on ice for one hour. Cells were subsequently centrifuged as before and washed thrice with FACS buffer. Cells were then incubated with anti-human PE conjugated secondary antibody (BD Biosciences) in FACS buffer for 30 minutes on ice. Cells were again washed thrice with FACS buffer and analyzed on a BD FACS Canto or an Intellicyt Flow Cytometer. Binding was measured as mean fluorescence intensity in the APC channel.

Work on B1 yielded an MFI of 152 MFI.

These binders were tested against T4, human TREM2/DAP12 fusion protein (human, UniProt O43914 41-113, limits assumed) (assay: cell-based or functional assay).
T4 sequence (O43914 other isoform, or with tags, fused parts or gaps limits assumed): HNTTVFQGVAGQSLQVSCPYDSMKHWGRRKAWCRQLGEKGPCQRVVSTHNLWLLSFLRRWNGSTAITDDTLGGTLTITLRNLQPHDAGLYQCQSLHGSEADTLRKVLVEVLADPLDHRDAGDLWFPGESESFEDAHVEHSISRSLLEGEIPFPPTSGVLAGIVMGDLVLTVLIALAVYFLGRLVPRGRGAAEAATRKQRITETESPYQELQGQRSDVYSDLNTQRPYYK

First: B2
Second: B3
The “Soluble luciferase activation at 10 µg/ml Fold over control” value of the first is lower: 4.13 fold over control for the first, 9.29 fold over control for the second.

Going from B4 to B5, the “Soluble luciferase activation at 10 µg/ml Fold over control” value rises from 5.38 fold over control to 6.01 fold over control.

First: B6
Second: B7
The “Soluble luciferase activation at 10 µg/ml Fold over control” value of the first is higher: 7.29 fold over control for the first, 7.06 fold over control for the second.

First: B8
Second: B9
The “Soluble luciferase activation at 10 µg/ml Fold over control” value of the first is lower: 5 fold over control for the first, 9.28 fold over control for the second.

Going from B10 to B11, the “Soluble luciferase activation at 10 µg/ml Fold over control” value rises from 6.28 fold over control to 6.92 fold over control.

First: B12
Second: B13
The “Soluble luciferase activation at 10 µg/ml Fold over control” value of the first is lower: 5.8 fold over control for the first, 6.81 fold over control for the second.

Going from B14 to B15, the “Soluble luciferase activation at 10 µg/ml Fold over control” value falls from 7.25 fold over control to 5.59 fold over control.

First: B16
Second: B17
The “Soluble luciferase activation at 10 µg/ml Fold over control” value of the first is lower: 4.97 fold over control for the first, 6.21 fold over control for the second.

With B18 the “Soluble luciferase activation at 10 µg/ml Fold over control” value was 6.57 fold over control.

Each binder was assayed against T2, human TREM2 Fc fusion (entire TREM2 …) (assay: BLI, Fab, monovalent).
Description: Briefly, IgG's were loaded on-line onto AHQ sensors. Sensors were equilibrated off-line in assay buffer for 30 minutes and then monitored on-line for 60 seconds for baseline establishment. For avid binding measurement, sensors with loaded IgGs were exposed to 100 nM antigen (human TREM2 Fc fusion using the entire TREM2 ECD; only one Fc arm was fused to TREM2) for 3 minutes, afterwards they were transferred to assay buffer for 3 minutes for off-rate measurement. Monovalent binding measurements were obtained by loading human TREM2 Fe fusion antigens to AHQ sensor and followed by exposure to 100 nM TREM2 antibody Fab. Kinetics data were fit using a 1:1 binding model in the data analysis software provided by ForteBio. Assay was run at room temperature (25° C.).

Compared with B3, B4 is 2.4-fold higher in Kd: 141 nM for the first, 334 nM for the second. The first binds more tightly here.

B5 and B6 are within 1.5-fold of each other in Kd: 181 nM for the first, 180 nM for the second.

First: B7
Second: B8
The Kd of the first is 2.5-fold lower: 130 nM for the first, 325 nM for the second. The first binds more tightly here.

B9 and B10 are within 1.5-fold of each other in Kd: 161 nM for the first, 137 nM for the second.

B11 and B13 are within 1.5-fold of each other in Kd: 142 nM for the first, 127 nM for the second.

First: B14
Second: B16
The Kd of the first is 2-fold lower: 95.3 nM for the first, 193 nM for the second. The first binds more tightly here.

Going from B17 to B18, the Kd falls from 225 nM to 83 nM (2.7-fold).

These binders were tested against T1, human TREM2 expressed on cells (assay: cell-based or functional assay).

B1 was tested, and the “DC viability (AUC)” value was 506000 AUC.

For B1, the “Mac viability (AUC)” value was -3560 AUC.

Target: T4, human TREM2/DAP12 fusion protein
Experiment: cell-based or functional assay
Remark: another data set of the same source

For B1, the “BW Luc assay plate bound 7.3 nM IgG, FOC” value was 1.41 FOC.

B1 was tested, and the “BW Luc assay soluble 7.3 nM IgG, FOC” value was 2.03 FOC.

Target: T3, cynomolgus monkey TREM2 Fc fusion …
Experiment: BLI, Fab, monovalent

B1 gave a Kd of 17.6 nM.

Target: T2, human TREM2 Fc fusion (entire TREM2 …)
Experiment: BLI, Fab, monovalent
Remark: another data set of the same source

B1 was tested, and the Kd was 17.8 nM.

Each binder was assayed against T1, human TREM2 expressed on cells (assay: FACS, hTREM2 BW cells).
Description: To examine cell binding of anti-TREM2 antibodies, recombinant, human TREM2-expressing BW5147.G.1.4 cells (ATCC® TIB48™) were established by stably expressing either mouse TREM2 or human TREM2 together with Dap12 using viral infection. Cells were harvested by scraping, washed in PBS, counted and plated on 96-well U bottom plates at 1)(10⁵ cells/well. The plates were spun at 1,400 rpm for 3 minutes and primary anti-TREM2 or control antibodies were added in FACS buffer (PBS H2% FBS) and incubated on ice for one hour. Cells were subsequently centrifuged as before and washed thrice with FACS buffer. Cells were then incubated with anti-human PE conjugated secondary antibody (BD Biosciences) in FACS buffer for 30 minutes on ice. Cells were again washed thrice with FACS buffer and analyzed on a BD FACS Canto. Binding was measured as mean fluorescence intensity in the APC channel.

Going from B3 to B4, the “cell binding (FOB)” value falls from 79 FOB to 76 FOB.

First: B5
Second: B6
The “cell binding (FOB)” value of the first is higher: 88 FOB for the first, 80 FOB for the second.

Compared with B7, B8 is lower in “cell binding (FOB)” value: 69 FOB for the first, 61 FOB for the second.

Compared with B9, B10 is lower in “cell binding (FOB)” value: 93 FOB for the first, 76 FOB for the second.

Going from B11 to B13, the “cell binding (FOB)” value falls from 84 FOB to 69 FOB.

Compared with B14, B16 is higher in “cell binding (FOB)” value: 78 FOB for the first, 87 FOB for the second.

First: B17
Second: B18
The “cell binding (FOB)” value of the first is lower: 74 FOB for the first, 86 FOB for the second.

Target: T1, human TREM2 expressed on cells
Experiment: FACS, hTREM2 BW cells
Remark: another data set of the same source
Procedure, shortened: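 Cells were BW5147.G.1.4 stably expressing human TREM2 with Dap12, or human monocyte-derived dendritic cells differentiated 6 days with GM-CSF and IL-4. Antibodies bound 1 h on ice in PBS+2% FBS, then PE anti-human secondary 30 min on ice; flow cytometry read-out as mean fluorescence intensity.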

Binder B1 has a Kd of 1.83 nM.
